Results on 12 molecules are retold here after article PMC6521605, “Structural insights into nanoRNA degradation by human Rexo2” (RNA, 2019).

As usually defined, the Kd is the free concentration of one partner at which half of the binding sites on the other are occupied at equilibrium, for simple one-to-one binding. A word on the stoichiometry N: it is a count of units in the complex or per binding partner.

Data set [1] deals with T1, Rexo2 H194A H194A (Homo sapiens) (UniProt Q9Y3B8).
T1 sequence: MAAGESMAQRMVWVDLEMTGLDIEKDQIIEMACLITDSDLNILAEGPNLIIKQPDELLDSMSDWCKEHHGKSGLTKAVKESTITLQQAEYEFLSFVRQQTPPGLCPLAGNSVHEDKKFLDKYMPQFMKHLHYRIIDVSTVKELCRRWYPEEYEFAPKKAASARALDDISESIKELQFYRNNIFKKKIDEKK
The data set can be described thus: fluorescence polarization. The settings on record: 50 mM EDTA, Hill coefficient 2.3, FP: 10 nM Cy3-oligonucleotide, 50 mM Tris-HCl pH 7.5, 50 mM NaCl, 15 min at 25 C, crystals: 0.2 M ammonium citrate dibasic, 20% PEG 3350, pH 5.1 …. A general note: In fluorescence polarisation assays a small probe gives low polarisation when free and higher when bound to something large.

A further data set concerns the target T2, Rexo2 D199A (Homo sapiens, UniProt Q9Y3B8 33-223, D199A).
T2 sequence: T1 sequence with A162H, D167A
As to the kind of experiment: X-ray crystallography; 2 Mg2+ in active site; pH 5.1; FP: 10 nM Cy3-oligonucleotide, 50 mM Tris-HCl pH 7.5, 50 mM NaCl, 50 mM EDTA, 15 min at 25 C; crystals: 0.2 M ammonium citrate dibasic, 20% PEG 3350, pH 5.1, room temperature. The settings on record: protein: recombinant; tags: N-terminal 6xHis removed by thrombin; chain copies: 2; single strand.

In data set [2] the target is T3, Rexo2 H194A (Homo sapiens, UniProt Q9Y3B8 33-223, H194A).
T3 sequence: T1 sequence
As to the kind of experiment: fluorescence polarization; 50 mM EDTA; Hill coefficient 3.5; Results sentence calls it 12-nt, legend and Methods 11-nt; FP: 10 nM Cy3-oligonucleotide, 50 mM Tris-HCl pH 7.5, 50 mM NaCl, 50 mM EDTA, 15 min at 25 C; crystals: 0.2 M ammonium citrate dibasic, 20% PEG 3350, pH 5.1, room temperature. The settings on record: protein: recombinant; tags: N-terminal 6xHis removed by thrombin; chain copies: 2; label: 5'-Cy3; single strand.

Data set [3] deals with the molecule itself. As to the kind of experiment: SEC-MALS; purified His-tag-free Rexo2 (residues 33-223); MW of ~44 kDa against 22.436 kDa calculated for a protomer; conditions not given.
Data set [4] has as its target T3, Rexo2 H194A. As to the kind of experiment: fluorescence polarization; 50 mM EDTA; FP: 10 nM Cy3-oligonucleotide, 50 mM Tris-HCl pH 7.5, 50 mM NaCl, 50 mM EDTA, 15 min at 25 C; crystals: 0.2 M ammonium citrate dibasic, 20% PEG 3350, pH 5.1, room temperature. The settings on record: protein: recombinant; tags: N-terminal 6xHis removed by thrombin; chain copies: 2; label: 5'-Cy3; single strand.

For another data set, the target named is T4, Rexo2 wild type (Homo sapiens, UniProt Q9Y3B8 33-223).
T4 sequence: T1 sequence with A162H
As to the kind of experiment: X-ray crystallography; no Mg2+ added, two endogenous Mg2+ at partial occupancy; pH 5.1; FP: 10 nM Cy3-oligonucleotide, 50 mM Tris-HCl pH 7.5, 50 mM NaCl, 50 mM EDTA, 15 min at 25 C; crystals: 0.2 M ammonium citrate dibasic, 20% PEG 3350, pH 5.1, room temperature. The settings on record: protein: recombinant; tags: N-terminal 6xHis removed by thrombin; chain copies: 2; single strand.

The target in data set [5] is T3, Rexo2 H194A. As to the kind of experiment: fluorescence polarization; 50 mM EDTA; Hill coefficient 1.4; FP: 10 nM Cy3-oligonucleotide, 50 mM Tris-HCl pH 7.5, 50 mM NaCl, 50 mM EDTA, 15 min at 25 C; crystals: 0.2 M ammonium citrate dibasic, 20% PEG 3350, pH 5.1, room temperature. The settings on record: protein: recombinant; tags: N-terminal 6xHis removed by thrombin; chain copies: 2; label: 5'-Cy3; single strand.

Residue numbers refer to the chain shown, from its start. In names and notes the source's numbering stands.

In turn, 2-nt RNA A2 showed a Kd in data set [1] of 24.4 nM.

B1: T10 DNA (crystal) (ssDNA)
DNA: TTTTTTTTTT
As for B1, the binding result with Rexo2 D199A is “binds”.

B2: 11-nt RNA (ssRNA)
RNA: AGCGCAGUACC
Regarding B2, in the data set with Rexo2 H194A [2], the Kd turned out to be 44.3 nM.

B3: human RNA exoribonuclease 2 (Rexo2), wild type, residues 33-223 (enzyme, UniProt Q9Y3B8 33-223, looked up)
chain: T1 sequence with A162H
notes: His tag removed with Thrombin (pET28a, NdeI/SalI); a few vector residues may be left at the N-terminus after cleavage (surmise); Calculated MW of a protomer 22.436 kDa; also called wild-type Rexo2; small fragment nuclease; source: E. coli BL21-CodonPlus (DE3) RIPL, purified (HisTrap HP, Thrombin, HisTrap flow-through, Superdex 75); not shown: His6, N-terminal, cleaved
Take B3: in data set [3], the “stoichiometry N” value is 2.

B4: human Rexo2-D199A mutant, residues 33-223 (enzyme, UniProt Q9Y3B8 33-223, looked up)
chain: T1 sequence with A162H, D167A
notes: Made by site-directed mutagenesis from the wild-type construct; PDB 6J7Y holds the wild-type parent; source: E. coli BL21-CodonPlus (DE3) RIPL, purified (HisTrap HP, Thrombin, HisTrap flow-through, Superdex 75); not shown: His6, N-terminal, cleaved
In the case of B4, the “stoichiometry N” value in data set [3] is 2.

B5: human Rexo2-H194A mutant, residues 33-223 (enzyme, UniProt Q9Y3B8 33-223, looked up)
chain: T1 sequence
notes: human Rexo2, residues 33-223, general base residue H194 replaced by Ala; Made by site-directed mutagenesis from the wild-type construct; PDB 6J7Y holds the wild-type parent; also called H194A Rexo2 mutant; source: E. coli BL21-CodonPlus (DE3) RIPL, purified (HisTrap HP, Thrombin, HisTrap flow-through, Superdex 75); not shown: His6, N-terminal, cleaved
B5: the “stoichiometry N” value in data set [3] was 2.

B6: 12-nt DNA T12 (ssDNA)
DNA: TTTTTTTTTTTT
For the molecule B6, the dissociation constant Kd in the data set with Rexo2 H194A [4] came out at 52.2 nM.

B7: T5 DNA (crystal) (ssDNA)
DNA: TTTTT
Regarding B7, the binding result with Rexo2 wild type is “binds”.

B8: 3-nt DNA T3 (ssDNA)
DNA: TTT
Take B8: in the data set with Rexo2 H194A [4], the Kd came to 29.9 nM.

B9: 5-nt DNA T5 (Cy3) (ssDNA)
DNA: TTTTT
For the molecule B9, in the data set with Rexo2 H194A [4], the Kd amounted to 51.8 nM.

B10: 5-nt RNA A5 (ssRNA)
RNA: AAAAA
B10: the dissociation constant (Kd) with Rexo2 H194A [5] is 52.1 nM.

B11: U12 RNA (ssRNA)
RNA: UUUUUUUUUUUU
In the case of B11, the binding result in the data set with Rexo2 D199A is reported as “binds”.
